The conditions of data set [1]: cited from earlier work.
The conditions of data set [2]: humans; cited from earlier work.
Data set [3] deals with cocaine-induced lethality. The experiment in a line: Rodent model of acute cocaine toxicity (convulsions and lethality) in rats.
Data set [4] is described as follows: Cocaine blood levels and lethal concentrations in the rat (literature).
The subject of data set [5] is cocaine-induced lethality. The experiment in a line: Cocaine toxicity in mice, incl. repeated CocE doses. It is filed as in vivo, mouse. From the text: The animal toxicity model was similar to that described previously, except as described. Male NIH Swiss mice were used. For tail intravenous injection, mice are placed in a small restraint chamber that exposes their tail. A heat lamp with an infrared, 250 w bulb is placed about 4 inches from the tail, and left for a couple of minutes. The tail is then cleansed with an alcohol wipe and a 30 G ½ precision glide needle (Fisher Scientific), is inserted into one of the side veins for infusion. To verify whether the needle is in the vein a small amount of drug is infused, if in the correct location the solution should infuse easily without any indication of an incorrect subcutaneous location, which appears white at the site of injection. For intravenous catheterization, Male NIH Swiss mice are anesthetized with ketamine 100 mg/kg and xylazine 10 mg/kg co-administered i.p. When mice are no longer responsive to paw pressure, the neck is shaved and prepped by alternating Betadine and alcohol wipes. Under clean conditions, a right transverse neck incision is made and the external jugular vein is isolated. A catheter is inserted into the vein with the aid of a dissecting microscope to the level of the right atrium, and is secured in the vein with nylon, 4-0 sutures and tissue adhesive, 3M Vetbond (3M Animal Care Products, St. Paul, Minn.). The catheters are a short length of Tygon tubing with an inner diameter of 0.010 in. and an outer diameter of 0.030 in. (Small Parts, Inc., Miami Lakes, Fla.). A small incision is made in the middle of the animal's back, and a trocar inserted subcutaneously to exit at the ventral incision site. The catheter is then pulled through the trocar and brought out the animal's back where it is held in place with nylon suture material and the tissue adhesive. A short piece of steel wire with a diameter of 0.011 in. (Small Parts, Inc., Miami Lakes, Fla.) is inserted into the end of the catheter. The ventral incision is closed with 4-0 Vicryl suture material and the mouse placed under a heat lamp for recovery. Approximately an hour later, the mouse is returned to its home cage.
Mice that survived a first administration of the combination of 0.32 mg CocE and 320 mg/kg cocaine were given this combination again, 14 days following the initial administration.

A short description of data set [6]: Non-denaturing polyacrylamide gel electrophoresis after incubation at 37° C. (aggregation). The format is physicochemical. Conditions: non-denaturing gels, 0.1 mg/ml. The procedure: Plasmids containing the mutations were transformed into E. coli BL21 cells and IPTG-induced enzyme was purified on Ni-Agarose. Expressed proteins were then tested for enzymatic activity and for thermostability at 37° C. Enzyme activity was measured using the spectrophotometric assay as described in Example 1. Thermostability was also tested via the spectrophotometric assay by pre-incubation of both wild-type and mutants at 37° C. for various times. Additionally, the nature of the thermo-instability of both the wild-type and T172R mutant was analyzed by polyacrylamide gel electrophoresis under denaturing and non-denaturing conditions. Briefly, mutant and wild-type enzyme at 0.1 mg/ml were incubated at 37° C. for various time-points, cooled to 4° C., mixed with SDS-loading dye containing-mercaptoethanol and run on 10% SDS-PAGE gels (denaturing conditions) or run on native 10% polyacrylamide gels (non-denaturing conditions) at 4° C. Gels were fixed with 10% methanol, 7% acetic acid for 30 minutes, and then stained with Sypro-Ruby protein gel stain (Molecular Probes, Invitrogen) for 3 hours. […] Finally, the exact melting temperature of both the wild-type and T172R mutant were determined by circular dichroism using a JASCO-810 spectropolarimeter driven by a JASCO V500/FP-750 analysis program for Windows. The CD spectra were measured in millidegrees and normalized against PBS buffer.

The nature of data set [7]: Low-UV CD spectra melt with CCA deconvolution. The format is physicochemical. As to the method:
Low-UV CD spectra data were obtained using an Aviv Spectropolarimeter Mode 400, with the help of Norma Greenfield, UMDNJ, using a 5-cell holder and 0.2 mg/ml protein concentrations. Raw data values obtained were blanked on control PBS, smoothed, and deconvoluted using the CCA algorithm as described by A. Perczel, K. Park, and G. D. Fasman, [Analysis of the circular dichroism spectrum of proteins using the convex constraint algorithm: a practical guide. Analytical Biochemistry 203, 83-93 (1992).] This algorithm finds the minimum number of curves needed to reconstruct a data set, and expresses the percentage each curve contributes to the data set as a function of temperature.
Below is presented a low UV CCA denconvolution analysis of CocE WT and 4 mutants, obtained in a single CD spectra melt using a 5-cell holder. The experiment was performed over the period of 8 hours, from 0-80° C.
Temperature dependent melting was observed between the wavelengths tested (200-250 nm), and the smoothed spectra for each mutant are shown in FIG. 29. […] Dose response analysis was used to approximate the temperature at which the initial spectra melts (1), the formation and melt of the intermediate state (2), and the accumulation of the fully melted protein (3).

A short description of data set [8]: Melting temperature by circular dichroism (near-UV). It is filed as physicochemical. As to the method: Plasmids containing the mutations were transformed into E. coli BL21 cells and IPTG-induced enzyme was purified on Ni-Agarose. Expressed proteins were then tested for enzymatic activity and for thermostability at 37° C. Enzyme activity was measured using the spectrophotometric assay as described in Example 1. Thermostability was also tested via the spectrophotometric assay by pre-incubation of both wild-type and mutants at 37° C. for various times. Additionally, the nature of the thermo-instability of both the wild-type and T172R mutant was analyzed by polyacrylamide gel electrophoresis under denaturing and non-denaturing conditions. Briefly, mutant and wild-type enzyme at 0.1 mg/ml were incubated at 37° C. for various time-points, cooled to 4° C., mixed with SDS-loading dye containing-mercaptoethanol and run on 10% SDS-PAGE gels (denaturing conditions) or run on native 10% polyacrylamide gels (non-denaturing conditions) at 4° C. Gels were fixed with 10% methanol, 7% acetic acid for 30 minutes, and then stained with Sypro-Ruby protein gel stain (Molecular Probes, Invitrogen) for 3 hours. Protein staining was visualized under UV-light using an AlphaImager™ 3400 (Alpha Innotech). Finally, the exact melting temperature of both the wild-type and T172R mutant were determined by circular dichroism using a JASCO-810 spectropolarimeter driven by a JASCO V500/FP-750 analysis program for Windows. The CD spectra were measured in millidegrees and normalized against PBS buffer.

The nature of data set [9]: Cocaine spectrophotometric assay (240 nm), Michaelis-Menten kinetics.
Data set [10] in a line: CocE activity recovered after pegylation (initial rates of cocaine hydrolysis). Conditions: m-PEG 5.5 KDa, preliminary.
Data set [11] relates to cocaine-induced lethality. Conditions: rats; cited from earlier work.
The conditions of data set [12]: against (-) cocaine; cited from earlier work.

Where two headings read alike, the source gives them in different places.

With `COC(=O)[C@H]1[C@@H](OC(=O)c2ccccc2)C[C@@H]2CC[C@H]1N2C` [cocaine], in data set [1] (after an intraperitoneal injection), the “time of peak plasma levels” value is given as “about 13 minutes”. In [1] (rat), the lethal blood concentrations is 50 to 128 µM. In addition, the lethal concentrations in [2] was 20 to 200 µM. In addition, in data set [3] (100 mg/kg cocaine, rats), the “animals in which death was observed” value was determined as 100% and the “time to death after administration” value is on record as “less than 15 minutes”. Further, the “estimated peak cocaine blood concentration” value in data set [4] (100 mg/kg cocaine i.p.) is 35 µM. Further, the “estimated peak cocaine blood concentration” value in data set [4] (320 mg/kg cocaine i.p.) was 113 µM. Moreover, the time to death result in data set [5] (180 mg/kg i.p. cocaine alone, mice) was “about 3 min”.

B1: T172R: mutant CocE polypeptide, SEQ ID NO: 25 (protein)
chain: MVDGNYSVASNVMVPMRDGVRLAVDLYRPDADGPVPVLLVRNPYDKFDVFAWSTQSTNWLEFVRDGYAVVIQDTRGLFASEGEFVPHVDDEADAEDTLSWILEQAWCDGNVGMFGVSYLGVTQWQAAVSGVGGLKAIAPSMASADLYRAPWYGPGGALSVEALLGWSALIGRGLITSRSDARPEDAADFVQLAAILNDVAGAASVTPLAEQPLLGRLIPWVIDQVVDHPDNDESWQSISLFERLGGLATPALITAGWYDGFVGESLRTFVAVKDNADARLVVGPWSHSNLTGRNADRKFGIAATYPIQEATTMHKAFFDRHLRGETDALAGVPKVRLFVMGIDEWRDETDWPLPDTAYTPFYLGGSGAANTSTGGGTLSTSISGTESADTYLYDPADPVPSLGGTLLFHNGDNGPADQRPIHDRDDVLCYSTEVLTDPVEVTGTVSARLFVSSSAVDTDFTAKLVDVFPDGRAIALCDGIVRMRYRETLVNPTLIEAGEIYEVAIDMLATSNVFLPGHRIMVQVSSSNFPKYDRNSNTGGVIAREQLEEMCTAVNRIHRGPEHPSHIVLPIIKR
modifications: Mutant CocE polypeptide
For the molecule B1, the “half-life at 37° C. relative to the wildtype” value in data set [6] is given as around 8 ×. For the same molecule, the “#3 formation” value in data set [7] (accumulation of the fully melted protein) stood at 56.85 °C. For the same molecule, in [7] (formation of the intermediate state), the “#2 formation” value came out at 38.11 °C. In addition, in data set [7] (initial spectra melts, 0.2 mg/ml), the “#1 melt” value is 39.22 °C. The “#2 melt” value in data set [7] (melt of the intermediate state) amounted to 54.56 °C. Further, in [8], the “increased melting temperature compared to the wild-type CocE” value amounted to 5 degrees. In data set [8] (near-UV CD), the detectable denaturation beginning result was “approximately 28 °C”. The molecule also gave a melting temperature in [8] (near-UV CD (260-320 nm), curve-fitting) of 41.43 °C. The results for the Km in [9] (40 min @ 37° C.) and in [9] (no preincubation) were 78.8 µM and 88.2 µM, respectively. The “duration of prophylactic effects” value in data set [3] (0.32 mg given 1, 10, 30, 60 minutes before 320 mg/kg cocaine) is on record as “longer lasting than the wild-type CocE”. The lethality result in data set [3] (0.32 mg i.v. one minute after 1 g/kg cocaine i.p., rats) is given as “about 70%”.

B2: PEG-CocE: wild-type CocE linked with monomethoxy-PEG polymers (MW 5.5 KDa), mixture with 1 to 4 PEG chains (conjugate, UniProt Q9L9D7 1-574, looked up)
Cocaine esterase: MVDGNYSVASNVMVPMRDGVRLAVDLYRPDADGPVPVLLVRNPYDKFDVFAWSTQSTNWLEFVRDGYAVVIQDTRGLFASEGEFVPHVDDEADAEDTLSWILEQAWCDGNVGMFGVSYLGVTQWQAAVSGVGGLKAIAPSMASADLYRAPWYGPGGALSVEALLGWSALIGTGLITSRSDARPEDAADFVQLAAILNDVAGAASVTPLAEQPLLGRLIPWVIDQVVDHPDNDESWQSISLFERLGGLATPALITAGWYDGFVGESLRTFVAVKDNADARLVVGPWSHSNLTGRNADRKFGIAATYPIQEATTMHKAFFDRHLRGETDALAGVPKVRLFVMGIDEWRDETDWPLPDTAYTPFYLGGSGAANTSTGGGTLSTSISGTESADTYLYDPADPVPSLGGTLLFHNGDNGPADQRPIHDRDDVLCYSTEVLTDPVEVTGTVSARLFVSSSAVDTDFTAKLVDVFPDGRAIALCDGIVRMRYRETLVNPTLIEAGEIYEVAIDMLATSNVFLPGHRIMVQVSSSNFPKYDRNSNTGGVIAREQLEEMCTAVNRIHRGPEHPSHIVLPIIKR
modifications: monomethoxy-PEG 5.5 kDa, 1-4 chains
B2: the “initial CocE activity recovered after the pegylation reaction” value in [10] was above 70%.

B3: BChE: serum butyrylcholinesterase (protein, UniProt P06276 29-602, looked up)
Cholinesterase: EDDIIIATKNGKVRGMNLTVFGGTVTAFLGIPYAQPPLGRLRFKKPQSLTKWSDIWNATKYANSCCQNIDQSFPGFHGSEMWNPNTDLSEDCLYLNVWIPAPKPKNATVLIWIYGGGFQTGTSSLHVYDGKFLARVERVIVVSMNYRVGALGFLALPGNPEAPGNMGLFDQQLALQWVQKNIAAFGGNPKSVTLFGESAGAASVSLHLLSPGSHSLFTRAILQSGSFNAPWAVTSLYEARNRTLNLAKLTGCSRENETEIIKCLRNKDPQEILLNEAFVVPYGTPLSVNFGPTVDGDFLTDMPDILLELGQFKKTQILVGVNKDEGTAFLVYGAPGFSKDNNSIITRKEFQEGLKIFFPGVSEFGKESILFHYTDWVDDQRPENYREALGDVVGDYNFICPALEFTKKFSEWGNNAFFYYFEHRSSKLPWPEWMGVMHGYEIEFVFGLPLERRDNYTKAEEILSRSIVKRWANFAKYGNPNETQNNSTSWPVFKSTEQKYLTLNTESTRIMTKLRAQQCRFWTSFFPKVLEMTGNIDEAEWEWKAGFHRWNNYMMDWKNQFNDYTSKKESCVGL
For B3, the “treatment required for protection against an LD50 dose of cocaine” value in data set [11] is listed as 10 mg/kg. In addition, in [12], the Kcat is 0.0683 s⁻¹ and the Michaelis constant (Km) is 4.5 µM. The “protection against cocaine-induced lethality” value in data set [3] (13 mg (10-times molar equivalent dose), one minute before 180 mg/kg cocaine) is reported as “no protection”. In data set [5] (1 mg), the “change in the dose of cocaine necessary to kill the mice” value is on record as “slight increase” and the time to death entry is on record as “not modified”.

A word on the Km: it is the substrate concentration at which the rate is half of its maximum.
